T1: human CLDN4 (Claudin-4) expressed by human cancer cell lines (Capan-2, HPAF-II, MCF7, HT-29, SW480, 22Rv1, DU … (human, UniProt O14493 1-209))
T1 construct: Endogenous protein on cell lines; MCF7 is said to express both CLDN3 and CLDN4; also called CLDN4 expressed in breast cancer cells, colorectal cancer cells and prostate cancer cells
T1 sequence: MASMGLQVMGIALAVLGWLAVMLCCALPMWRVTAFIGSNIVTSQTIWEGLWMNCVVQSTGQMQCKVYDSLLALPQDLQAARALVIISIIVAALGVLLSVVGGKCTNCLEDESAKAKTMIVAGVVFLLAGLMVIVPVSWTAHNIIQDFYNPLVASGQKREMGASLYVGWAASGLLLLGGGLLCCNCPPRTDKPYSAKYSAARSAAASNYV


What was measured:
[1] = molecular target: T1, human CLDN4 (Claudin-4) expressed by …; experiment: FCM on live cancer cell lines, 5 µg/ml
Experimental: (§1) Human pancreatic cancer cell lines Capan-2 and HPAF-II human lymphoma cell line Daudi (ATCC CCL-213), human breast cancer cell line MCF7 (ATCC HTB-22), human colorectal cancer cell lines HT-29 (ATCC HTB-38) and SW480 (ATCC CCL-228) and human prostate cancer cell line s 22Rv1 (ATCC CRL-2505), DU 145 (ATCC HTB-81) and PC-3 (ATCC CRL-1435) were cultured for 3 to 4 days, and adhered cells were peeled off using 0.02% EDTA solution (manufactured by Nacalai Tesque) to recover the cells. The thus recovered cells were washed with PBS and, in order to prevent nonspecific adsorption of antibodies, blocked at ice temperature for 30 minutes using BSA-PBS. The cells were dispensed at 1 to 5×10⁵ cells/100 μl BSA-PBS into a 96-well U bottom plate and centrifuged (1,500 rpm, 5 minutes), the supernatant was removed and then a mouse anti-serum to be immunized, a culture supernatant of hybridoma KM3900 (8.6 μg/ml), anti-CLDN4 monoclonal antibodies KM3900 and KM3907 diluted to 5 μg/ml or a mouse IgG2a isotype control (manufactured by DAKO) was dispensed as the primary antibody at 100 μl/well and allowed to react at ice temperature for 60 minutes. […] After the reaction, the cells were washed once with BSA-PBS and suspended in PBS, and the fluorescent intensity was measured by FCM (manufactured by Beckman Coulter).

[2] = molecular target: T1, human CLDN4 (Claudin-4) expressed by …; experiment: FCM on live Capan-2 and HPAF-II cells, 8.6 µg/ml
Experimental: as §1, with “Coulter). […]” for “Coulter).”

Row | binding result [1] | binding result [2] | Binder
1 | binds |  | anti-CLDN4 monoclonal antibody KM3907 produced by hybridoma KM3907 (FERM BP-10885) (antibody, mouse IgG2a, V domains shown) VH: QVQLQQSGPELVKPGASVKISCKASGYAISTSWMNWVKQRPGKGLEWIGRINPGDGNTNYNGKFMAKATLTADKPSSTAYMQLSSLTSEDSAVYFCTRGDRWSGAMDYWGQGTSVTVSS VL: GNVLTQSPAIMSASPGEKVTMTCRASSSVSSSYLHWYQQKSGASPKLWIYSTSNLASGVPVRFSGSGSGTSYSLTISSVEAEDAATYYCQQYSGFPLTFGAGTKLELK
2 |  | binds | anti-CLDN4 monoclonal antibody KM3900 produced by hybridoma KM3900 (FERM BP-10751) (antibody, V domains shown, Used as hybridoma culture supernatant (8.6 µg/ml) or purified antibody (5 µg/ml); also called anti-CLDN4 mouse antibody KM3900) VH: EVQLQQSGPELVKPGASVKISCKASGYTFTDYYMNWVKQSHGKSLEWIGDVVPNNGVPTYNQKFKGKATLTVDKSSSTAYMELRSLTSEDSAVYYCARPHYYYAGRSGAMDYWGQGTSVTVSS VL: QIVLTQSPAIMSASLGERVTMTCTASSTVSSTYLHWYQQKPGSSPKLWIYSTSNLASGVPARFSGSGSGTSYSLTISSMEAEDAATYYCHQYHRSPPTFGGGTKLEIK

From patent publication US20090202556A1 (Kyowa Kirin, published 2009)
